Measured values as given in US20240101654A1 (NEURIMMUNE, published 2024).

B1: NI-502.8H1 (antibody, V domains shown)
VH: EVQLVESGGGLVQPGGSLRLSCAASGFTFSIYTMSWVRQAPGKGLEWVSAILSDGSTYYADSVEGRFTISRDNSKTTLYLQMNSLTAEDTAVYYCTKRVEGSFRGWGQGTLVTVSS
VL: EIVMTQSPGTLSLSPGESATLSCRASQSVSTTYLAWYQQKPGQAPRLLIYGASSRATGIPDRFSGSGSGTDFTLTISRLEPEDFAVYYCQQYGGSRLITFGQGTRLEIK
B2: NI-502.4P3 (antibody, V domains shown)
VH: EVQLVQSGAEVKKPGESLKISCKVSGYDFSKYWIGWVRQMPGKGLEWMGLIYPGDSDTRYSPSLEGQVSISADKSISAAYLQFSSLKASDSAMYYCVRKGYSAYLGGWFDPWGQGTLVTVSS
VL: DIQLTQSPDSLAASLGERVTINCRSSQNIFYNSNNKNFLAWYQQKAGQSPKLLIYWASTRESGVPDRFSGSGSGTDFTLTISGLQAGDVAVYFCQQYFTDAPTFGGGTKVEIK

Target: AD-associated Tau in brain extracts of patients with AD (human, UniProt P10636-8 2-441, limits assumed, pathologically modified (sites not given))
Experiment: cell-based or functional assay

AD-associated Tau in brain extracts of patients with AD, sequence (P10636 other isoform, or with tags, fused parts or gaps limits assumed): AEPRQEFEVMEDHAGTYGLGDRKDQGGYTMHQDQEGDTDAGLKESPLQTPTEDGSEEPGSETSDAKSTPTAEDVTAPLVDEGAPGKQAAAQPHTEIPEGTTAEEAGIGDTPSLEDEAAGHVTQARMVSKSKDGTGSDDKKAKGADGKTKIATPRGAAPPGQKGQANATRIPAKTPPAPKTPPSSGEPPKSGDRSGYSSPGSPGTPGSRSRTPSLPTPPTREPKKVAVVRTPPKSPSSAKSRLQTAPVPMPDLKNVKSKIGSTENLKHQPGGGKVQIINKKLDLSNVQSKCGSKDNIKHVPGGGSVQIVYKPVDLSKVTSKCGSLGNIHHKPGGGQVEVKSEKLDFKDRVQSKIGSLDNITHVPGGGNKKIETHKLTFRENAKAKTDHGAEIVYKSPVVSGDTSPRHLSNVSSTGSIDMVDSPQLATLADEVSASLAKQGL

| Binder | IC50 of Tau aggregation (FRET) in HEK293T Tau biosensor cells seeded with immunodepleted AD brain homogenate |
| --- | --- |
| B1 | 7.1 µg/mL |
| B2 | 6.5 µg/mL |
